Results: patent US20250163138A1 (Alexion, published 2025)
Values belong to the molecule of their own block, whether it stands above or below them.

What was measured:
[1] = biological target: T1, human serum albumin (human, UniProt P02768 25-609); test: SPR (Biacore 3000), HSA amine-coupled on CM5 chip, pH 6.0, no VHH
T1 construct: also called HSA; human albumin

[2] = biological target: T1, human serum albumin; test: sandwich: biotin-hC5 on CAP chip, test protein, then albumin; column 'Human C5 and Human Albumin'; protein has no anti-albumin domain
Method: (§1) The 26 constructs listed in Table 13 were expressed and the fusion proteins were evaluated for binding to human C5 and albumin (Table 13-Octet binding), generation of aggregates, hydrophobicity (HIC HPLC) and glycosylation (electrospray mass spectrometry). For the octet analysis, biotinylated human C5 was captured on a CAP chip followed by an injection of a test bi-specific molecule. Various concentrations of albumin were subsequently injected. Kinetics were determined at pH 7.4 (Biacore 3000).

[3] = biological target: T2, Cynomolgus monkey serum albumin (cynomolgus monkey, UniProt A2V9Z4 25-608); test: binding kinetics (method not named), pH 7.4
T2 construct: also called CSA; cynomolgus albumin

[4] = biological target: T3, Plasbumin® (UniProt P02768 25-609); test: binding kinetics (method not named), pH 7.4
[5] = biological target: T4, human complement protein C5 (human, UniProt P01031 19-1676); test: SPR (Biacore), pH 7.4
T4 construct: Native C5 is a two-chain protein made from one precursor; also called hC5; human C5

[6] = biological target: T5, cynomolgus monkey (cyno) complement protein C5 (cynomolgus monkey, UniProt A0A2K5U1T1 19-1676); test: SPR (Biacore), pH 7.4
T5 construct: also called cC5; cyno C5

[7] = biological target: T4, human complement protein C5; test: binding kinetics (method not named), pH 7.4
[8] = biological target: T5, cynomolgus monkey (cyno) complement …; test: binding kinetics (method not named), pH 7.4
[9] = biological target: T4, human complement protein C5; test: binding kinetics (method not named), pH 6.0
[10] = biological target: T5, cynomolgus monkey (cyno) complement …; test: binding kinetics (method not named), pH 6.0
[11] = biological target: T4, human complement protein C5; test: SPR (Biacore), pH 6.0
[12] = biological target: T5, cynomolgus monkey (cyno) complement …; test: SPR (Biacore), pH 6.0
[13] = biological target: T2, Cynomolgus monkey serum albumin; test: binding kinetics (method not named), pH 6.0
[14] = biological target: T3, Plasbumin®; test: binding kinetics (method not named), pH 6.0
[15] = biological target: T1, human serum albumin; test: BLI (Octet HTX), VHH-His on Penta-His sensors, 100 nM albumin
From the text: (§2) VHH sequences were first analyzed by SDS-PAGE and Coomassie staining to determine approximate concentration relative to a known standard. Supernatant concentrations were then normalized and subjected to biolayer interferometry on an Octet HTX (Pall/ForteBio). Penta-His sensors were exposed to kinetics buffer for 60 seconds to establish baseline measurements. The sensors were then loaded with VHH-His containing supernatants for 300 seconds before a second baseline was established in kinetics buffer over 120 seconds. Tips were then incubated with 100 nM HSA or CSA in kinetics buffer for 600 seconds and dissociation measured over an additional 600 seconds.

[16] = biological target: T2, Cynomolgus monkey serum albumin; test: as above
From the text: as §2

[17] = biological target: T4, human complement protein C5; test: sandwich: biotin-hC5 on CAP chip, test protein, then albumin; column 'Human C5 and Human Albumin'; protein has no anti-C5 domain
Method: as §1

[18] = biological target: T1, human serum albumin; test: SPR (Biacore 3000), biotinylated albumin on CAP chip, pH 7.4
Method: (§3) Biotinylated albumin was captured onto a CAP chip saturated with Biotin CAPture reagent containing deoxyribooligonucleotides (obtained from GE Healthcare). Concentrations of purified VHH domains were injected for 5 minutes at a flowrate of 50 μL/min. Three concentrations were assessed per VHH domain. Bound analyte was allowed to dissociate for 600 seconds. The chip surface was regenerated after each concentration by injecting 6 M guanidine HCl/0.25 M NaOH for 2 minutes at 10 μL/min. Kinetics were determined at pH 7.4 and pH 6.0 in HBS-EP buffer using a 1:1 Langmuir model (local Rₘₐₓ and constant RI) and double reference subtraction (subtraction of a buffer concentration cycle from the sample concentration cycle and subtraction of a parallel reference flow cell).

[19] = biological target: T2, Cynomolgus monkey serum albumin; test: as above
Method: as §3

[20] = biological target: T1, human serum albumin; test: SPR (Biacore 3000), biotinylated albumin on CAP chip, pH 6.0
Method: as §3

[21] = biological target: T2, Cynomolgus monkey serum albumin; test: as above
Method: as §3

response difference [1]: 30 RU
Molecule: FcRn (receptor)

binding result [2]: no binding
B1: TPP-3211 (VHH)
VHH: EVQLVESGGGLVQPGGSLRLSCAASGRAHSDYAMAWFRQAPGQEREFVAGIGWSGGDTLYADSVRGRFTNSRDNSKNTLYLQMNSLRAEDTAVYYCAARQGQYIYSSMRSDSYDYWGQGTLVTVSS
notes: Control: no anti-albumin domain (only anti-C5)

Kd [3]: 3780 pM
koff [3]: 0.0126 s⁻¹
kon [3]: 3.32e+06 M⁻¹ s⁻¹
Kd [4]: 936 pM
koff [4]: 0.00346 s⁻¹
kon [4]: 3.7e+06 M⁻¹ s⁻¹
Kd [5]: 233 pM
koff [5]: 0.000672 s⁻¹
kon [5]: 2.88e+06 M⁻¹ s⁻¹
Kd [6]: 420 pM
koff [6]: 0.000848 s⁻¹
kon [6]: 2e+06 M⁻¹ s⁻¹
Kd [7]: 51.2 pM
koff [7]: 0.000491 s⁻¹
kon [7]: 9.6e+06 M⁻¹ s⁻¹
Kd [8]: 219 pM
koff [8]: 0.000818 s⁻¹
kon [8]: 3.74e+06 M⁻¹ s⁻¹
Kd [9]: 138 pM
koff [9]: 0.00104 s⁻¹
kon [9]: 7.56e+06 M⁻¹ s⁻¹
Kd [10]: 744 pM
koff [10]: 0.0041 s⁻¹
kon [10]: 5.51e+06 M⁻¹ s⁻¹
Kd [11]: 189 pM
koff [11]: 0.00152 s⁻¹
kon [11]: 8.02e+06 M⁻¹ s⁻¹
Kd [12]: 641 pM
koff [12]: 0.0025 s⁻¹
kon [12]: 3.91e+06 M⁻¹ s⁻¹
Kd [13]: 2120 pM
koff [13]: 0.00693 s⁻¹
kon [13]: 3.27e+06 M⁻¹ s⁻¹
Kd [14]: 563 pM
koff [14]: 0.002 s⁻¹
kon [14]: 3.55e+06 M⁻¹ s⁻¹
B2: CRL0500 (bispecific antibody)
chain: EVQLVESGGGLVKPGGSLRLSCAASGRPVSNYAAAWFRQAPGKEREFVSAINWQKTATYADSVKGRFTISRDNAKNSLYLQMNSLRAEDTAVYYCAAVFRVVAPKTQYDYDYWGQGTLVTVSSGGGGSGGGGSGGGGSEVQLVESGGGLVQPGGSLRLSCAASGRAHSDYAMAWFRQAPGQEREFVAGIGWSGGDTLYADSVRGRFTNSRDNSKNTLYLQMNSLRAEDTAVYYCAARQGQYIYSSMRSDSYDYWGQGTLVTVSS
notes: anti-albumin VHH / (G4S)3 / anti-C5 VHH fusion, purified by Protein A; also called CRL0500 (HSA/C5)

Kd [3]: 5190 pM
koff [3]: 0.0152 s⁻¹
kon [3]: 2.93e+06 M⁻¹ s⁻¹
Kd [4]: 901 pM
koff [4]: 0.00359 s⁻¹
kon [4]: 3.98e+06 M⁻¹ s⁻¹
Kd [7]: 53.6 pM
koff [7]: 0.000539 s⁻¹
kon [7]: 1.01e+07 M⁻¹ s⁻¹
Kd [8]: 223 pM
koff [8]: 0.000786 s⁻¹
kon [8]: 3.53e+06 M⁻¹ s⁻¹
Kd [9]: 155 pM
koff [9]: 0.000907 s⁻¹
kon [9]: 5.84e+06 M⁻¹ s⁻¹
Kd [10]: 720 pM
koff [10]: 0.00399 s⁻¹
kon [10]: 5.55e+06 M⁻¹ s⁻¹
Kd [13]: 2490 pM
koff [13]: 0.00755 s⁻¹
kon [13]: 3.03e+06 M⁻¹ s⁻¹
Kd [14]: 649 pM
koff [14]: 0.0021 s⁻¹
kon [14]: 3.23e+06 M⁻¹ s⁻¹
B3: CRL0952 (bispecific antibody)
chain: EVQLVESGGGLVKPGGSLRLSCAASGRPVSNYAAAWFRQAPGKEREFVSAINWQKTATYADSVKGRFTISRDNAKNSLYLQMNSLRAEDTAVYYCAAVFRVVAPKTQYDYDYWGQGTLVTVSSGGGGAGGGGAGGGGSEVQLVESGGGLVQPGGSLRLSCAASGRAHSDYAMAWFRQAPGQEREFVAGIGWSGGDTLYADSVRGRFTNSRDNSKNTLYLQMNSLRAEDTAVYYCAARQGQYIYSSMRSDSYDYWGQGTLVTVSS

Kd [5]: 1070 pM
koff [5]: 0.000242 s⁻¹
kon [5]: 225000 M⁻¹ s⁻¹
Kd [6]: 240 pM
koff [6]: 2.2e-05 s⁻¹
kon [6]: 91500 M⁻¹ s⁻¹
Kd [11]: 5270 pM
koff [11]: 0.000211 s⁻¹
kon [11]: 40000 M⁻¹ s⁻¹
Kd [12]: 1250 pM
koff [12]: 4.62e-05 s⁻¹
kon [12]: 37100 M⁻¹ s⁻¹
B4: CRL0483 (bispecific antibody)
chain: EVQLVESGGGLVQPGGSLRLSCAASGRTFSGILSPYAVGWFRQAPGKGLEFVSTITSGGSAIYTDSVKGRFTISRDNAKDSLYLQMNSLRAEDTAVYYCAVRTRRYGSNLGEVPQENEYGYWGQGTLVTVSSGGGGSGGGGSGGGGSEVQLLESGGGLVQPGGSLRLSCAASGFTFRSFGMSWVRQAPGKGPEWVSSISGSGSDTLYADSVKGRFTISRDNSKNTLYLQMNSLRPEDTAVYYCTIGGSLSRSSQGTLVTVSS
notes: anti-C5 VHH / (G4S)3 / anti-albumin VHH fusion, purified by Protein A; also called CRL0483 (C5/HSA)

binding result [15]: binds
binding result [16]: binds
B5: HAS042 (VHH)
VHH: EVQLVESGGGLVKPGGSLRLSCAASGRPVSNYAAAWFRQAPGKEREFVSAINWQKTATYADSVKGRFTISRDNAKNSLYLQMNSLRAEDTAVYYCAAVFRVVAPKTQYDYDYWGQGTLVTVSS
notes: anti-albumin VHH-His

binding result [17]: no binding
B6: TPP-3212 (VHH)
VHH: EVQLVESGGGLVKPGGSLRLSCAASGRPVSNYAAAWFRQAPGKEREFVSAINWQKTATYADSVKGRFTISRDNAKNSLYLQMNSLRAEDTAVYYCAAVFRVVAPKTQYDYDYWGQGTLVTVSS
notes: Control: no anti-C5 domain (only anti-albumin)

Kd [18]: 341 pM
koff [18]: 0.00044 s⁻¹
kon [18]: 1.29e+06 M⁻¹ s⁻¹
Kd [19]: 539 pM
koff [19]: 0.000562 s⁻¹
kon [19]: 1.04e+06 M⁻¹ s⁻¹
Kd [20]: 466 pM
koff [20]: 0.000208 s⁻¹
kon [20]: 445000 M⁻¹ s⁻¹
Kd [21]: 764 pM
koff [21]: 0.000281 s⁻¹
kon [21]: 368000 M⁻¹ s⁻¹
B7: HAS040 (VHH)
VHH: QVQLNESGGGMVQAGGSLRLSCAASGRTVSNYAAGWFRQAPGKEREFVAAINWNKTTTYADSVKGRFIISREYAKNTVALQMNSLKPEDTAVYYCAAVFRIVAPKTQYEYDYWGQGTQVTVSS
notes: anti-albumin VHH-His; also called HAS40

Kd [18]: 461 pM
koff [18]: 0.000566 s⁻¹
kon [18]: 1.23e+06 M⁻¹ s⁻¹
Kd [19]: 1150 pM
koff [19]: 0.00123 s⁻¹
kon [19]: 1.07e+06 M⁻¹ s⁻¹
Kd [20]: 1040 pM
koff [20]: 0.000387 s⁻¹
kon [20]: 373000 M⁻¹ s⁻¹
Kd [21]: 2370 pM
koff [21]: 0.000739 s⁻¹
kon [21]: 312000 M⁻¹ s⁻¹
B8: HAS041 (VHH)
VHH: QVQLIESGGGLVQAGGSLGLSCAASGRPVSNYAAAWFRQAPGKEREFVAAINWNKTATYADSVKGRFTISRDNAKSTVALQMNSLKPEDTAVYYCAAVFRVVAPKTQYDYDYWGQGTQVTVSS
notes: anti-albumin VHH-His; also called HAS41

Kd [18]: 3490 pM
koff [18]: 0.00393 s⁻¹
kon [18]: 1.13e+06 M⁻¹ s⁻¹
Kd [19]: 3850 pM
koff [19]: 0.00216 s⁻¹
kon [19]: 561000 M⁻¹ s⁻¹
Kd [20]: 5460 pM
koff [20]: 0.00181 s⁻¹
kon [20]: 330000 M⁻¹ s⁻¹
Kd [21]: 5470 pM
koff [21]: 0.00153 s⁻¹
kon [21]: 280000 M⁻¹ s⁻¹
B9: MSA21 VHH domain (VHH)
VHH: QVQLQESGGGLVQPGGSLRLSCEASGFTFSRFGMTWVRQAPGKGVEWVSGISSLGDSTLYADSVKGRFTISRDNAKNTLYLQMNSLKPEDTAVYYCTIGGSLNPGGQGTQVTVSS
notes: Published comparator (WO 2004/062551 A2); also called ADL021

Kd [5]: 1100 pM
koff [5]: 7.69e-05 s⁻¹
kon [5]: 70100 M⁻¹ s⁻¹
Kd [6]: 240 pM
koff [6]: 2.2e-05 s⁻¹
kon [6]: 91500 M⁻¹ s⁻¹
Kd [11]: 556 pM
koff [11]: 0.000236 s⁻¹
kon [11]: 425000 M⁻¹ s⁻¹
Kd [12]: 128 pM
koff [12]: 6.17e-06 s⁻¹
kon [12]: 48200 M⁻¹ s⁻¹
B10: CRL0484 (bispecific antibody)
chain: EVQLVESGGGLVQPGGSLRLSCAASGRTFSGILSPYAVGWFRQAPGKGLEFVSTITSGGSAIYTDSVKGRFTISRDNAKDSLYLQMNSLRAEDTAVYYCAVRTRRYGSNLGEVPQENEYGYWGQGTLVTVSSGGGGSGGGGSGGGGSEVQLVESGGGLVKPGGSLRLSCAASGRPVSNYAAAWFRQAPGKEREFVSAINWQKTATYADSVKGRFTISRDNAKNSLYLQMNSLRAEDTAVYYCAAVFRVVAPKTQYDYDYWGQGTLVTVSS
notes: anti-C5 VHH / (G4S)3 / anti-albumin VHH fusion, purified by Protein A; also called CRL0484 (C5/HSA)
